Measured values from US20220259318A1 (Hoffmann-La Roche, published 2022).
Changes are numbered by the printed parent chain. “And” between values parts separate entries of the source, which are not always exact repeats. Equal values may be shown once. Read-outs that look alike come from different tables or passages of the source.

Tests used:
human GPRC5D [1] = target: T1, human GPRC5D (human, UniProt Q9NZD1 1-345); assay: cell-based or functional assay
human GPRC5D [2] = target: T1, human GPRC5D; assay: cell ELISA, CHO hu GPRC5D (EC/IC50 rel)
Method: Stable transfected CHO clones expressing either human GPRCSD or cynomolgus GPRCSD or murine GPRCSD or human GPRCSA were used to analyze the binding of potential lead candidate antibodies as IgGs. In detail, 10⁴ cells (viability≥98%) were seeded into 384 well-microtiter plates (BD Poly D-Lysin, #356662, volume: 25 μl/well) using fresh culture medium. After overnight incubation at 37° C., 25 μl/well dilutions of antibodies were added (15×1:3 dilutions in 1×PBS, assay conc. starts at 30 μg/ml) to the cells for 2 hours at 4° C. After one washing step using 90 μl/well PBST (10×PBS, Roche, #11666789001+0.1% Tween 20), cells were subsequently fixed by the addition of 50 μl/well 0.05% glutaraldehyde (Sigma Cat. No: G5882 in 1×PBS) for 10 min at room temperature (RT). After three additional washing steps using 90 μl/well PBST, secondary antibodies were added for detection: for human antibodies goat anti-human Ig a chain antibody HRP conjugate (Millipore #AP502P) diluted 1:2000 in blocking buffer (1×PBS (Roche #11666789001)+2% BSA (Bovine Serum Albumin Fraction V, fatty acid free, Roche, #10735086001)+0.05% Tween 20) was used (25 μl/well). […] After incubation for 1 h at RT and three additional washing steps using 90 μl/well PBST, 25 μl/well TMB substrate was added (Roche order no. 11835033001) for 10 min and color development to final ODs was determined by measurement at 370 nm/492 nm.
For the characterization of the humanization variants of the VH and VL domains of the GPRC5D binders the ELISA protocol as described above was used (see Example 7). The data are summarized in the table 10 for the humanization variants of 5E11 and in table 11 for the humanization variants of 5F11.

human GPRC5D [3] = target: T1, human GPRC5D; assay: cell-based or functional assay; remark: listed apart in the source
human GPRC5D [4] = target: T1, human GPRC5D; assay: cell-based or functional assay; remark: listed apart in the source
human GPRC5D [5] = target: T1, human GPRC5D; assay: cell-based or functional assay; remark: listed apart in the source
human GPRC5D [6] = target: T1, human GPRC5D; assay: cell-based or functional assay; remark: listed apart in the source
human GPRC5D [7] = target: T1, human GPRC5D; assay: cell-based or functional assay; remark: listed apart in the source
human GPRC5D [8] = target: T1, human GPRC5D; assay: cell-based or functional assay; remark: listed apart in the source

T1 sequence (Q9NZD1 whole entry): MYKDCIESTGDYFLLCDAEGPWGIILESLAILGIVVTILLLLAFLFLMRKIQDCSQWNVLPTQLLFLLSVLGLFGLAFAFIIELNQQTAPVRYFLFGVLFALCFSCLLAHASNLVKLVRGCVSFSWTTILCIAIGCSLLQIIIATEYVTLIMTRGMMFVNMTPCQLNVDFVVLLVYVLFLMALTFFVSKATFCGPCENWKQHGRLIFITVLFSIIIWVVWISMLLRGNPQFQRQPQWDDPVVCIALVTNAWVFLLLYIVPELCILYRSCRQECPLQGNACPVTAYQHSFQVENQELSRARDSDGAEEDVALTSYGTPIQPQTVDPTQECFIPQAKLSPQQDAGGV

B1: ET150-5-TCB (bispecific antibody, human IgG1, lambda, L234A L235A)
light 1: QSVLTQPPSASGTPGQRVTISCSGSRSNVGGNYVFWYQQVPGATPKLLIYRSNQRPSGVPDRFAGSKSGSSASLAISGLRSEDEADYYCATWDDSLSGFVFGTGTKVTVLGQPKAAPSVTLFPPSSKKLQANKATLVCLISDFYPGAVTVAWKADSSPVKAGVETTTPSKQSNNKYAASSYLSLTPEQWKSHRSYSCQVTHEGSTVEKTVAPTECS
light 2: EVQLLESGGGLVQPGGSLRLSCAASGFTFSTYAMNWVRQAPGKGLEWVSRIRSKYNNYATYYADSVKGRFTISRDDSKNTLYLQMNSLRAEDTAVYYCVRHGNFGNSYVSWFAYWGQGTLVTVSSASVAAPSVFIFPPSDEQLKSGTASVVCLLNNFYPREAKVQWKVDNALQSGNSQESVTEQDSKDSTYSLSSTLTLSKADYEKHKVYACEVTHQGLSSPVTKSFNRGEC
heavy 1: EVQLVESGGGLVKPGGSLRLSCAASGFTFSDYYMSWIRQAPGKGLEWVSYISSSGSTIYYADSVKGRFTISRDNAKNSLYLQMNSLRAEDTAVYYCARGYGKAYDQWGQGTLVTVSSASTKGPSVFPLAPSSKSTSGGTAALGCLVEDYFPEPVTVSWNSGALTSGVHTFPAVLQSSGLYSLSSVVTVPSSSLGTQTYICNVNHKPSNTKVDEKVEPKSCDKTHTCPPCPAPEAAGGPSVFLFPPKPKDTLMISRTPEVTCVVVDVSHEDPEVKFNWYVDGVEVHNAKTKPREEQYNSTYRVVSVLTVLHQDWLNGKEYKCKVSNKALGAPIEKTISKAKGQPREPQVCTLPPSRDELTKNQVSLSCAVKGFYPSDIAVEWESNGQPENNYKTTPPVLDSDGSFFLVSKLTVDKSRWQQGNVFSCSVMHEALHNHYTQKSLSLSPGK
heavy 2: not shown
- EC50 of anti-GPRC5D-TCB mediated killing, AMO-1 (human GPRC5D [1]): 0.0835 nM
- EC50 of anti-GPRC5D-TCB mediated killing, L363 (human GPRC5D [1]): 0.768 nM
- EC50 of anti-GPRC5D-TCB mediated killing, NCI-H929 (human GPRC5D [1]): 0.833 nM
- EC50 of anti-GPRC5D-TCB mediated killing, RPMI-8226 (human GPRC5D [1]): 0.797 nM

B2: 5F11_P1AE5741 (antibody, V domains shown)
VH: EVQLVESGGGVVQPGRSLRLSCAASGFSFSNYGMAWVRQAPGKGLEWVASISTGGGNTYYRDSVKGRFTISRDNAKNTLYLQMNSLRAEDTAVYYCTRHDRGGLYWGQGTMVTVSS
VL: DIVMTQSPLSLPVTPGEPASISCRSSKSLLHSNGITYVYWYLQKPGQSPQLLIYRMSNRASGVPDRFSGSGSGTDFTLKISRVEAEDVGVYHCGQLLENPYTFGQGTKLEIK
notes: Humanized 5F11 IgG; PGLALA Fc implied by the CAR-J assay; also called 5F11_VH1b + 5F11_VL2a
- EC50 (human GPRC5D [2]): 0.0067 µg/mL and 0.04 nM
- EC50 values of CAR-J activation (human GPRC5D [3]): 1.4 ng/mL
- CAR-J2 EC50 [ng/mL] (PGLALA-CAR-J activation, L363 target cells) (human GPRC5D [4]): 1.4 ng/mL

B3: 5F11_P1AE5745 (antibody, V domains shown)
VH: B2 VH with E1Q, R61A, A75S
VL: B2 VL with Q47K, L51V, R59L
notes: Humanized 5F11 IgG; PGLALA Fc implied by the CAR-J assay; also called 5F11_VH1c + 5F11_VL1b
- EC50 (human GPRC5D [2]): 0.0097 µg/mL and 0.06 nM
- EC50 values of CAR-J activation (human GPRC5D [3]): 1.62 ng/mL
- CAR-J2 EC50 [ng/mL] (PGLALA-CAR-J activation, L363 target cells) (human GPRC5D [4]): 1.62 ng/mL

B4: P1AE5744 (antibody, V domains shown)
VH: B2 VH with E1Q, R61A, A75S
VL: B2 VL with L51V, R59L
notes: Humanized 5F11 IgG; PGLALA Fc implied by the CAR-J assay; also called 5F11_VH1c + 5F11_VL1a
- EC50 (human GPRC5D [2]): 0.0086 µg/mL and 0.06 nM
- EC50 values of CAR-J activation (human GPRC5D [3]): 3.63 ng/mL
- CAR-J2 EC50 [ng/mL] (PGLALA-CAR-J activation, L363 target cells) (human GPRC5D [4]): 3.63 ng/mL

B5: P1AE5763 (antibody, V domains shown)
VH: B2 VH with V11L, R16G, R61A
VL: DIVMTQSPDSLAVSLGERATINCKSSKSLLHSNGITYVYWYQQKPGQPPKLLIYRMSNLASGVPDRFSGSGSGTDFTLTISSLQAEDVAVYHCGQLLENPYTFGQGTKLEIK
notes: Humanized 5F11 IgG; PGLALA Fc implied by the CAR-J assay; also called 5F11_VH2d + 5F11_VL2b
- EC50 (human GPRC5D [2]): 0.006 µg/mL and 0.04 nM
- EC50 values of CAR-J activation (human GPRC5D [3]): 5.47 ng/mL
- CAR-J2 EC50 [ng/mL] (PGLALA-CAR-J activation, L363 target cells) (human GPRC5D [4]): 5.47 ng/mL

B6: 5E11_P1AE5723 (antibody, V domains shown)
VH: EVQLLESGGGLVQPGGSLRLSCAASGFTFSKYAMAWVRQAPGKGLEWVASISTGGVNTYYADSVKGRFTISRDNSKNTLYLQMNSLRAEDTAVYYCATHTGDYFDYWGQGTMVTVSS
VL: EIVLTQSPGTLSLSPGERATLSCRASQSVSISGINLMNWYQQKPGQQPKLLIYHASILASGIPDRFSGSGSGTDFTLTISRLEPEDFAVYYCQQTRESPLTFGQGTRLEIK
notes: Humanized 5E11 IgG; PGLALA Fc implied by the CAR-J assay; also called 5E11_VH1c + 5E11_VL2b
- EC50 (human GPRC5D [2]): 0.006 µg/mL and 0.04 nM
- EC50 values of CAR-J activation (human GPRC5D [3]): 3.7 ng/mL
- CAR-J2 EC50 [ng/mL] (PGLALA-CAR-J activation, L363 target cells) (human GPRC5D [5]): 3.7 ng/mL

B7: 5E11_P1AE5728 (antibody, V domains shown)
VH: B6 VH with V2L, S75A
VL: B6 VL with K49R
notes: Humanized 5E11 IgG; PGLALA Fc implied by the CAR-J assay; also called 5E11_VH1d + 5E11_VL2a
- EC50 (human GPRC5D [2]): 0.0079 µg/mL and 0.05 nM
- EC50 values of CAR-J activation (human GPRC5D [3]): 5.6 ng/mL
- CAR-J2 EC50 [ng/mL] (PGLALA-CAR-J activation, L363 target cells) (human GPRC5D [5]): 5.6 ng/mL

B8: P1AE5730 (antibody, V domains shown)
VH: B6 VH with V2L, S75A
VL: DIQMTQSPSSLSASVGDRVTITCRASQSVSISGINLMNWYQQKPGKQPKLLIYHASILASGVPSRFSGSGSGTDFTLTISSLQPEDFATYYCQQTRESPLTFGQGTRLEIK
notes: Humanized 5E11 IgG; PGLALA Fc implied by the CAR-J assay; also called 5E11_VH1d + 5E11_VL3a
- EC50 (human GPRC5D [2]): 0.008 µg/mL and 0.05 nM
- EC50 values of CAR-J activation (human GPRC5D [3]): 3.5 ng/mL
- CAR-J2 EC50 [ng/mL] (PGLALA-CAR-J activation, L363 target cells) (human GPRC5D [5]): 3.5 ng/mL

B9: P1AE5718 (antibody, V domains shown)
VH: B6 VH with V2L, A61R, G66A, S75A
VL: B8 VL
notes: Humanized 5E11 IgG; PGLALA Fc implied by the CAR-J assay; also called 5E11_VH1b + 5E11_VL3a
- EC50 (human GPRC5D [2]): 0.0121 µg/mL and 0.08 nM
- EC50 values of CAR-J activation (human GPRC5D [3]): 105 ng/mL
- CAR-J2 EC50 [ng/mL] (PGLALA-CAR-J activation, L363 target cells) (human GPRC5D [5]): 105 ng/mL

B10: B72-TCB (bispecific antibody, human IgG1, kappa, L234A L235A)
heavy 1: not shown
light 1: B1 light 2 with L5V, S30N, S49A, D64A, T80S, R89K, A90T, V99A
heavy 2: QVQLVQSGAEVKKPGASVKVSCKASGYSFTGYTMNWVRQAPGQGLEWMGLINPYNSDTNYAQKLQGRVTMTTDTSTSTAYMELRSLRSDDTAVYYCARVALRVALDYWGQGTLVTVSSASTKGPSVFPLAPSSKSTSGGTAALGCLVEDYFPEPVTVSWNSGALTSGVHTFPAVLQSSGLYSLSSVVTVPSSSLGTQTYICNVNHKPSNTKVDEKVEPKSCDKTHTCPPCPAPEAAGGPSVFLFPPKPKDTLMISRTPEVTCVVVDVSHEDPEVKFNWYVDGVEVHNAKTKPREEQYNSTYRVVSVLTVLHQDWLNGKEYKCKVSNKALGAPIEKTISKAKGQPREPQVCTLPPSRDELTKNQVSLSCAVKGFYPSDIAVEWESNGQPENNYKTTPPVLDSDGSFFLVSKLTVDKSRWQQGNVFSCSVMHEALHNHYTQKSLSLSPGK
light 2: DIQMTQSPSSLSASVGDRVTITCKASQNVATHVGWYQQKPGKAPKRLIYSASYRYSGVPSRFSGSGSGTEFTLTISNLQPEDFATYYCQQYNRYPYTFGQGTKLEIKRTVAAPSVFIFPPSDRKLKSGTASVVCLLNNFYPREAKVQWKVDNALQSGNSQESVTEQDSKDSTYSLSSTLTLSKADYEKHKVYACEVTHQGLSSPVTKSFNRGEC
- EC50 in vitro killing assay, AMO-1 (human GPRC5D [6]): 0.109 nM
- EC50 in vitro killing assay, EJM (human GPRC5D [6]): 0.06 nM
- EC50 in vitro killing assay, L363 (human GPRC5D [6]): 0.058 nM
- EC50 in vitro killing assay, MOLP-2 (human GPRC5D [6]): 0.124 nM
- EC50 in vitro killing assay, NCI-H929 (human GPRC5D [6]): 0.058 nM
- EC50 in vitro killing assay, OPM-2 (human GPRC5D [6]): 0.171 nM
- EC50 in vitro killing assay, RPMI (human GPRC5D [6]): 0.193 nM
- AUC, TCB-mediated tumor cell lysis, AMO-1 (human GPRC5D [7]): 5.45e+07
- AUC, TCB-mediated tumor cell lysis, IM-9 (human GPRC5D [7]): 8.6e+06
- AUC, TCB-mediated tumor cell lysis, LP-1 (human GPRC5D [7]): 1.15e+07
- AUC, TCB-mediated tumor cell lysis, NCI-H929 (human GPRC5D [7]): 1.09e+07
- EC50 (pM), TCB-mediated tumor cell lysis, AMO-1 (human GPRC5D [8]): 79.9 pM
- EC50 (pM), TCB-mediated tumor cell lysis, IM-9 (human GPRC5D [8]): 198 pM
- EC50 (pM), TCB-mediated tumor cell lysis, LP-1 (human GPRC5D [8]): 49 pM
- EC50 (pM), TCB-mediated tumor cell lysis, NCI-H929 (human GPRC5D [8]): 26.9 pM
